Assay results: article PMC6403468

Target: VLDLR fused to monomeric GFP (VLDLR_mGFP) (mouse)
Assay: FRET or BRET; time-resolved fluorescence anisotropy imaging (TR-FAIM, homo-FRET) of mGFP-tagged proteins in living HEK293 cells, rFRET from global fit, Imaging Medium; basal state, and before and after 1 uM AP20187, FL-Reelin or R3-6 (up to 90 nM)

Substance “VLDLR fused to monomeric GFP (VLDLR_mGFP) (receptor)” has a rFRET of 0.0858.
